The target in the data set is purified recombinant full-length WDR5, P61964.

B1: GST-tagged SETd1B Win-SET domain, Setd1B(1727-1966), R1748A (protein)
chain: LSSAKKKKRDDGIREHVTGCAASEGFYTIDKKDKLRYLNSSRASTDEPPADTQGMSIPAQPHASTRAGSERRSEQRRLLSSFTGSCDSDLLKFNQLKFRKKKLKFCKSHIHDWGLFAMEPIAADEMVIEYVGQNIRQVIADMREKRYEDEGIGSSYMFRVDHDTIIDATKCGNFARFINHSCNPNCYAKVITVESQKKIVIYSKQHINVNEEITYDYKFPIEDVKIPCLCGSENCRGTLN
Turning to B1, the “core complex methyltransferase activity, H3K4me1 and H3K4me2 peptides, mutant against wild type” value is on record as “showed similar amounts of activity compared to that of their wild-type counterparts”.

B2: GST-tagged MLL3 Win-SET domain, MLL3(4689-4911), R4710A (protein)
chain: FRYGRNPLMELPLAVNPTGCAASEPKMSAHVKRFVLRPHTLNSTSTSKSFQSTVTGELNAPYSKQFVHSKSSQYRKMKTEWKSNVYLARSRIQGLGLYAARDIEKHTMVIEYIGTIIRNEVANRKEKLYESQNRGVYMFRMDNDHVIDATLTGGPARYINHSCAPNCVAEVVTFERGHKIIISSSRRIQKGEELCYDYKFDFEDDQHKIPCHCGAVNCRKWMN
Consider B2, for which the “core complex methyltransferase activity, H3K4me0 peptide, mutant against wild type” value is recorded as “approximately 2-fold more activity than the wild-type MLL3 core complex”.

Source of the values: US20180282373.
